Measurements reported in the supplement of paper PMC7125110.
± gives the standard error. Variants at the floor of the assay were thinned out.

B1: glmS ribozyme (parent)
chain: AUAAAAGCGCCAGAACUACAGAAAUGUAGUUGACGAGGAGGAGGUUUAUCGAAUUUUCGGCGGAUGCCUCCAAA

Columns and labels:
Conditions in all cases: with glucosamine-6-phosphate
[1] = variants of: B1; assay: self-cleavage kobs at 40 uM GlcN6P; higher = faster cleavage; RNA array
Outline: (§1)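 Barcoded ribozyme variants were transcribed in situ on sequenced MiSeq chips by E. coli RNA polymerase. At 37 °C, a hybridised Cy3 probe tracked them while glucosamine-6-phosphate (40 μM to 10 mM) in HEPES/KCl/Mg(OAc)2 buffer flowed in and tiles were imaged over ~14 h. Per-tile medians of signals normalised to baseline and to non-cleaving reference variants were fit to one- or two-exponential decays, giving kobs. kcat and KM came from weighted Michaelis–Menten fits across concentrations.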

[2] = variants of: B1; assay: self-cleavage kobs at 640 uM GlcN6P; higher = faster cleavage; RNA array
Outline: as §1

[3] = variants of: B1; assay: self-cleavage kobs at 2500 uM GlcN6P; higher = faster cleavage; RNA array
Outline: as §1

[4] = variants of: B1; assay: self-cleavage kobs at 10000 uM GlcN6P; higher = faster cleavage; RNA array
Outline: as §1

[5] = variants of: B1; assay: self-cleavage kobs at 160 uM GlcN6P; higher = faster cleavage; RNA array
Outline: as §1

Variant | self-cleavage kobs at 40 uM GlcN6P [1] [s⁻¹] | self-cleavage kobs at 640 uM GlcN6P [2] [s⁻¹] | self-cleavage kobs at 2500 uM GlcN6P [3] [s⁻¹] | self-cleavage kobs at 10000 uM GlcN6P [4] [s⁻¹] | self-cleavage kobs at 160 uM GlcN6P [5] [s⁻¹]
A12C A14G A15C | 0.000144 ± 2.4e-05 | 0.00124 ± 0.0003 | 0.00354 ± 0.00082 |  | 
A12G C68G C71U | < 1e-05 | < 1e-05 |  | < 1e-05 | 
G13A C67A C71A | < 1e-05 |  |  |  | 
A12C C34G G40U A52U C61U | < 1e-05 |  |  | < 1e-05 | 
A12C C71A | 6.84e-05 ± 9.7e-06 | 0.000423 ± 6.6e-05 | 0.00201 ± 0.0003 | 0.00229 ± 0.00033 | 
G13A U31A G59C C70A | < 1e-05 |  |  |  | 
G13A G62U | < 1e-05 | < 1e-05 | < 1e-05 | < 1e-05 | < 1e-05
A12U A15C U55A | 0.000587 ± 0.00012 |  |  | 0.012 ± 0.0027 | 
A12G C50G C58U | 0.000139 ± 4.9e-05 |  |  | 3.85e-05 ± 1.8e-05 | 
A12U U56A | 0.00122 ± 0.00016 | 0.0157 ± 0.0027 | 0.04 ± 0.012 | 0.0626 ± 0.016 | 0.0024 ± 0.00059
G13A G38U C50G A64G | 6.47e-05 ± 2.4e-05 | 0.00011 ± 5.2e-05 |  |  | 
C11G C58G | < 1e-05 | < 1e-05 |  | < 1e-05 | < 1e-05
A12U G13A U31A G38A G40A | < 1e-05 |  |  | < 1e-05 | 
C11G G13A G41U U45G G66A | < 1e-05 |  |  |  | 
A12U G29U | 0.000958 ± 0.00022 |  |  | 0.019 ± 0.0045 | 
C11U G29C A53U U56G C70A | 0.000205 ± 4.8e-05 |  |  | 0.000369 ± 8.6e-05 | 
G13C A52C G62U | < 1e-05 |  |  | < 1e-05 | 
C11U A42C C67G C71A | < 1e-05 |  |  | < 1e-05 | 
A12U G32C | < 1e-05 |  | < 1e-05 |  | < 1e-05
C11A U45C A48G | < 1e-05 | < 1e-05 | < 1e-05 | < 1e-05 | 
C11G A39G U45C G60A G66U | < 1e-05 |  |  |  | 
A12G G63U | < 1e-05 |  |  | < 1e-05 | < 1e-05
C11G A53C | < 1e-05 | < 1e-05 | < 1e-05 | < 1e-05 | < 1e-05
C11G U54A | < 1e-05 |  |  |  | 

Variant | self-cleavage kobs at 40 uM GlcN6P [1] [s⁻¹] | self-cleavage kobs at 640 uM GlcN6P [2] [s⁻¹] | self-cleavage kobs at 2500 uM GlcN6P [3] [s⁻¹] | self-cleavage kobs at 10000 uM GlcN6P [4] [s⁻¹] | self-cleavage kobs at 160 uM GlcN6P [5] [s⁻¹]
A12C G38C U45A | < 1e-05 |  |  | < 1e-05 | 
C11U A48G C68A | < 1e-05 |  |  |  | 
C11G A42G | < 1e-05 | < 1e-05 |  |  | < 1e-05
C11G A42U | < 1e-05 | < 1e-05 | < 1e-05 | < 1e-05 | < 1e-05
A12C A36G | < 1e-05 | < 1e-05 | < 1e-05 | < 1e-05 | < 1e-05
G13A A15U G37C | < 1e-05 |  |  |  | 
G13C C61U | < 1e-05 | < 1e-05 | < 1e-05 |  | < 1e-05
A12C C58A G63A | < 1e-05 |  |  |  | 
C11A G44U U54C | < 1e-05 |  | < 1e-05 |  | 
A12G A64U C71U | < 1e-05 |  |  |  | 
A12C G38C U56C | < 1e-05 |  |  | < 1e-05 | 
A12C A36C A48G C61U C70A | < 1e-05 |  |  |  | 
C11U A33G | < 1e-05 |  | < 1e-05 | < 1e-05 | < 1e-05
C11U G51A | < 1e-05 |  | < 1e-05 |  | 
C11U G51U | < 1e-05 | < 1e-05 | < 1e-05 | < 1e-05 | < 1e-05
G13A G44U C50G C71U | < 1e-05 | < 1e-05 |  |  | 
C11G A33G G40C | < 1e-05 |  |  | < 1e-05 | 
C11U A48C | < 1e-05 | < 1e-05 | < 1e-05 | < 1e-05 | < 1e-05
C11U G59C C71G | < 1e-05 |  |  |  | 
A12G A14G A15C U30G | 7.29e-05 ± 2e-05 |  |  | 0.0042 ± 0.00087 | 
G13C A64C | < 1e-05 |  | < 1e-05 | < 1e-05 | < 1e-05
A12U U45A C58G C71G | < 1e-05 |  | 4.36e-05 ± 1.4e-05 | 3.15e-05 ± 1.5e-05 | 
A12C U30A G38C C61U | < 1e-05 |  | < 1e-05 |  | 
A12C U55G | 0.000833 ± 0.00013 | 0.00404 ± 0.00084 | 0.00822 ± 0.0022 | 0.0274 ± 0.0044 | 0.000979 ± 0.00021
